Article PMC11098746 (2024)

B1: 29 (protein)
chain: QNYWEHPYQNSDVYRPINEHREHPKEYEYPLHQEHTYQQEDSGEDENTLQHAYPIDHEGAEPAPQEQNLFSSIEIVERSNYMGNPWTEYMAKYDIEEVHGSGIRVDLGEDAEVAGTQYRLPSGKCPVFGKGIIIENSNTAFLTPVATGNQYLKDGGFAFPPTEPLMSPMTLDEMRHFYKDNKYVKNLDELTLCSRHAGNMIPDNDKNSNYKYPAVYDDKDKKCHILYIAAQENNGPRYCNKDESKRNSMFCFRPAKDISFQNYAYLSKNVVDNWEKVCPRKNLQNAKFGLWVDGNCEDIPHVNEFPAIDLFECNKLVFELSASDQPKQYEQHLTDYEKIKEGFKNKNAAMIKSAFLPTGAFKADRYKSHGKGYNWGNYNTETQKCEIFNVKPTCLINNAAYIATTALSHPIEVENNFPCSLYKDEIMKEIERESKRIKLNDNDDEGNKKIIAPRIFISDDKDSLKCPCDPEMVSNSACRFFVCKCVERRAEVTSNNEVVVKEEYKDEYADIPEHKPT
modifications: bait human Fc-tagged dimer
B2: 64 (protein)
chain: RMNVVSHNSMKKVGEEGKDEKIISCVVEYVIKGDLSIDDGDFCDSNSICSNNPGLCDNGQVVVPGDYCSNYYDITLVVEESSFVQKDYWLKGTIPFLESMVFNSNVAKDKAHMSVVLFAGKQRVVVPFTDESSQDKNMLLEKINSIDEGIATSSDTLYVNALKYAIENVIFGDGTRKDAPKVAVLFYYGFDYGANKNMIPDVVQTYKEQNVKLIIVGIALGIRDNAYLLADCSIGDENCVNVVFKPWDFVIPAAADVNQKICDKNKA
modifications: bait human Fc-tagged dimer
B3: 35 (protein)
chain: NNADINKAWKKNTYVDKKLNKLFNRALGESQVNGELASEEVKEKILDLLEEGNTLTESVDDNKNLEEAEDIKENILLSNIEEPKENIIDNLLNNIGQNSEKQESVSENVQVSDELFNELLNSVDVNGEVKENILEESQVNDDIFNSLVKSVQQEQQHNVEEKVEESVEENDEESVEENVEENVEENDDESVASSVEESIASSVDESIDSSIEENVAPTVEEIVAPTVEEIVAPSVVESVAPSVEESVEENVEESVAENVEESVAENVEESVAENVEESVAENVEESVAENVEESVAENVEEIVAPTVEESVAPTVEEIVAPSVEESVAPSVEEIVVPTVEESVAENVEEIVAPSVEEIVAPSVEEIVAPTVEESVAPTVEEIVAPSVEESVAPSVEEIVVPTVEESVAENVEESVAENVEEIVAPSVEEIVAPSVEEIVAPSVEEIVAPSVEEIVAPSVEEIVAPSVEEIVAPSVEEIVAPSVEEIVAPTVEEIVAPTVEEIVAPSVEEIVAPTVEESVAENVATNLADNLLSNLLGGIETEEIKDSILNEIEEVKENVVTTILENVEETTAESVTTFSNILEEIQENTITNDAIEEKLEELHENVLSAALENTQSEEEKKEVIDVIEEVKEEVATTLIETVEQAEEESASTITEIFENLEENAVESNENVAENLEKLNEAVFNTVLDKVEETVEISGESLENNEMDKAFFSEIFDNVKGIQENLLTGMFRSIETSIVIQSEEKVDLNENVVSSILDNIENMKEGLLNKLENIASTEGVQETVTEHVEQNVYVDVDVPAMKDQFLGILNEAGGLKEMFFNLEDVFKSESDVITVEEIKDEPVQKEVEKETVSIIEEMEENIVDVLEEEKEDLTDKMIDAVEESIEISSDSKEETESIKDKEKDVSLVVEEVQDNDMDESVEKVLELKNMEEELMKDAVEINDITSKLIEETQELNEVEADLIKDMEKLKELEKALSEDSKEIIDAKDDTLEKVIEEEHDITTTLDEVVELKDVEEDKIEKVSDLKDLEEDILKEVKEIKELESEILEDYKELKTIETDILEEKKEIEKDHFEKFEEEAEEIKDLEADILKEVSSLEVEEEKKLEEVHELKEEVEHIISGDAHIKGLEEDDLEEVDDLKGSILDMLKGDMELGDMDKESLEDVTAKLGERVESLKDVLSSALGMDEEQMKTRKKAQRPKLEEVLLKEEVKEEPKKKITKKKVRFDIKDKEPKDEIVEVEMKDEDIDEDIEEDVEEDIEEDKVEDIDEDIDEDIDEDIGEDKDEVIDLIVQKEKRIEKVKEKKKKLEKKVEEGVSGLKKHVDEVMKYVQKIDKEVDKEVSKALESKNDVTNVLKQNQDFFSKVKNFVKKYK
modifications: bait human Fc-tagged dimer
B4: 14 (protein)
chain: KNINLNDEGKKKQSGIINENEDGKNNKANNNKKVQHNKINRKGNNAVTKKTDEHKNDGDAENKKNGEHKNDGDGKNKKNGEHKNDGDGKNKKMDEHLYDIDGENKKNGEHLYDVDGENKKNGEHLYDIDGENKKNGEHLYDIDGENKKTDEHLYDVDGGKNNILEYNNIDQHNEFPESLENDNSYDKLFDDVELRDIIHNEKFFENLKNVNNNDVHNFLLVDKEMERRKEEEKKKSRKLEEDEEDDEDEEEDNDEKWKEENKNNAASSSSSSSNNFNKNYDIYDNRDLYNYDNLVDITQEEHINVPNINDEINEGRKHDKEDFLIFEKRLNEAEDRNDASDGDNKMEDLINNHFDDSGDNGAYENIQVKKELYNKNEKIIKGRDNNLNDGDIHMNKNNAANKLNNNNNNNNNDNNMNSEMKYKTFKEEYEEQILSKP
modifications: bait human Fc-tagged dimer
B5: 40 (protein)
chain: ISTHDTCDEWSEWSACTHGISTRKCLSDSSIKDETLVCTKCDKWGEWSECKDGRMHRKVLNCPFIKEEQECDVNNEMAEDTHMNNAYIYFNADDGDNEYEDHDDKNDDDKNYDNENDDDKNDDDKNDDDKNDDDKNDDDKNDDEENYNDAEEKVKNNDIHNSAANSNNEVTNFIQIKDKIMIKHKTTNIHPVNFIQEKYTRNNKYRSDNFAKILNNMNHINNNNYNSRSSSTSSKNARGYRGGSSNMYPHVPNYASSSVHNSANNERKSDEDLDNIEGDNIAKEERIVPINNKNYDNHDEHSNIHEHDTSRNVDNEKYNSNDDLPNLATYDYDMNNDAYKKNHMKKPMDSIKEEQTKQENNQNNEKVSSSEKQNDDISALYEHMNTKDQEHTQHEQPNDAAHGHFEDYSK
modifications: bait human Fc-tagged dimer
B6: 81 (protein)
chain: EFVKGSYESKGYPLIHLMNNNEYTGSANNFIKNNLINLLYIYKDVKFDEEKTLGIDSFLDIEDDTKIERLIKEKMLYINKYINSRQMIKYSGFIYLYEIIEKKNFYFLLHFLMTNNNNGLIIILPEDMYINVDEYYRINKINKLNDQNKKNKVVSQDLLEKRIMFVQSLILNMKLQQSIYFIKNNKDIEKIYENYQSKFAYFDLTRNVAISPISKIQNVYKMNSKSLYYFLNKNNNIHINTIFNKQQDNQAFLLTKQKTIIICADFNVFNIFSDLPSNTAFTNSNLITIQNLIKLFYDVYNKEQVNYNILFFFTNYYYGIQDFLNSINVIFKENIEFVICLDNLNNADFYIYESNKAQPQNVQAFYRILNNIVKGSIKKNVQMVNEKIKIHSKHLPSLHEYFVLNKINSFSLSSSKKNNNMIFLNKFPMLQPKLNIQNVKNNIAIIFKSLYLYMTQKKTDQKENTQQEQSIEKNEKEKSMLTYINKNMASNDDMNTIDYNLNKYNKFFIYKEDTLKLFNYFKTIINSNIADTNFLIKDYKLTTDKKQKFFYQKYAHVTFSMAISYVFH
modifications: bait human Fc-tagged dimer
B7: 48 (protein)
chain: GCIKLKTSYKHEPILLLKNDERIISLNKIIPYLTEEVFISKDNIMTKINVENNICIELIKKHEILNTPIEHFFHFTNREYTIDLRNNDNIYNYAKRILNNKLDFELCNKILSFTIPINYNICSFPSYHNYFLYINYLKDVKIELIISALEKAKFLFLKIPNTFNLNTAHANFNDNDYIIEKGILENDLIKIDISKIIHRYICKKYYLYKSDEQINDDDLRQINNNNANNDISDKEIKMVLMTSHTLSDIIIFPSIIQNVQALKHYKNIKNVVKLKKKIKKRYTEWENWAPCYNVCNNNFAYKCRYYKCTTENQEFCDQNFHMNFAECPFTPCEDAIKKENEKKEIEKDKNKAIIINHENNRDQEGPIDDETMLRYRKNKKISFFMWIINNKK
modifications: bait human Fc-tagged dimer
B8: 60 (protein)
chain: GIITGKLNYFGTFSLKIFAKTYFQYKINTYSNLYSYCGISQEYNKAKSTCESCPIGTFWNSEKLLCENCQKYIENTATLKNGAKLKTDCLCSPGYEYSDKSSKCEKCKPGYYKKSVGNFICIKGCPINEKSITYGAKSYAEMDCKCIEGYYRKEDKCVLCLSNYYCPGNELIKPCDKNKISKEGVIHKNDCICKENYIKDNKNNNCVYCASIAKILGKPIYCSLCDPIYFHEDIYKNIFLLPNNIHNYGLINNIYNYDEDLSLQGNIMKYAYFHKTTNIERNFAHYINIKNIYHTFNNNINNYDYLTNSKFAIEIDIPEPKKCIFCDSGYYIKKKKCISCTTKYCEGFNHNPKACPKNSVVNKMKASSIFDCSCKRGYGILNERRNAYSNTITCQICPQNFFKHIISDDSCFPCPLYTYTLNQGATSILQCLPKKGYFIYMFKSINIDYLRYKFDINTENRIYNYFENNNKIFDEDVYNFFLNKQYSKFFYNTENK
modifications: bait human Fc-tagged dimer
B9: 31 (protein)
chain: EGYICDFSSEKYNIYFDEQKDDVICYHEIYEGDSIGIIIPRYKEGNENIYIKTNCFNEVSLESSGNNALSIYDIFNDDEITLYDQDSIFYTEYISSILHIKKVKKNTYLHCVFESKDVNGLTTHKGIAKITIKNVKHNENKKLINNDVDNNAALSFKKKLTNKLVIDLLNKIDIIKDDKLNNQYNNDDNKFLVEAKPGDILYLLGVKRKNKKYLYVDQDCPLHFERIGSIYKYIFPIINEKEEIYNCALYVDDDVSTNKKIVGNLKITFVSKNPAINDINIDVLKKYIHSDIEQKLYKLLYGEISNSVNKYAEQNVDINNADISAIQFMNLNSDNCNNNECIEFFNNAACSSYCGKGYRLLNGNNHMYDEQMVVPCYNGECKPEDEIEP
modifications: bait human Fc-tagged dimer
B10: 62 (protein)
chain: EFKRKQKVEINSLQTNKNNDNIREEKIKGDVESQPDVDGDTCVIFSSSEGNSRNCWCPRGYILCSEEDVLDVQGKLNEIKNKHERSLVTPLWMKRLCDNSNDVGFKSMSVVIDYELAVLCKDGSNKDYADFEIIGASGYITGEEMIEEQKRNPWYVPRKCTVNNFYLCRKVENDNVNCAYTPWSDWSACKNNAQKRYRKVRRSNQNNENFCLWNDKIVPRNIMEQTRSC
modifications: bait human Fc-tagged dimer
B11: 73 (protein)
chain: NNIKLNDKENINFESYFNKRTNEENVLNKNVAKEMGDTFVAHKAIELNINHHHVNNDKEFNNNNNNKHQPYYHNEHDKKFSESLKAHMDHLKILNNDLKQHIDKKERNEIYENNDLKKYIIKEIQNNKYLNKEKKSSEDIQILEEHSKKLQKEIHEWLESVNNIEEKSNILKNIKSQLLNNIASLNHALSEEIKNINDIKELQKQQNDLFSENWLYFLPSSSDYLLNEKKKNLYDNQDNSMKDDINNNDKYNIFNYLQNVQDKDNQYEVMKQDNNNIHSGSS
modifications: bait human Fc-tagged dimer

These binders were tested against FGFR4 ectodomain (Homo sapiens, UniProt P22455) (assay: AVEXIS normalised luminescence).

Q: With B1 as the binder, how does the binding score read?
A: 1.43

Q: With B2 as the binder, how does the binding score read?
A: 0.876

Q: B3 was tested. Which binding score did it give?
A: 0.753

Q: For B4, which binding score is on record?
A: 0.821

Q: How did the binding score turn out when B5 was run?
A: 1.75

Q: For B6, which binding score is on record?
A: 0.817

Q: With B7 as the binder, how does the binding score read?
A: 0.752

Q: With B8 as the binder, how does the binding score read?
A: 0.959

Q: B9 was tested. Which binding score did it give?
A: 1.28

Q: With B10 as the binder, how does the binding score read?
A: 1.47

Q: With B11 as the binder, how does the binding score read?
A: 198
